Consider one molecule from US20230192903A1 (published 2023).

This assay has as its target T1, human CD3 antigen (human, UniProt P07766 23-126).
T1 construct: also called Human CD3ϵ
The assay can be described thus: detection method the same as in Examples 2-8 (Biacore). (In general: SPR reads the build-up and loss of mass on a sensor chip optically.)

B1: Bispecific antibody molecule YCS4 (bispecific antibody, human IgG1, kappa)
light 1: not shown
light 2: not shown
heavy 1: QVQLQESGPGLVKPSETLSLTCTVSGFSLTRYGVSWIRQPPGKGLEWIGVIWGEGNTNYNPSLKSRVTISKDSSKSQVSLKLSSVTAADTAVYYCARVNFGNALDYWGQGTLVTVSSASTKGPSVFPLAPSSKSTSGGTAALGCLVKDYFPEPVTVSWNSGALTSGVHTFPAVLQSSGLYSLSSVVTVPSSSLGTQTYICNVNHKPSNTKVDKKVEPKSCDKTHTCPPCPAPPVAGPSVFLFPPKPKDTLMISRTPEVTCVVVDVSHEAPEVQFNWYVDGVEVHNAKTKPREEQFNSTFRVVSVLTVVHQDWLNGKEYKCKVSNKGLPAPIEKTISKTKGQPREPQVYTLPPCRDELTKNQVSLWCLVKGFYPSDIAVEWESNGQPENNYKTTPPVLDSDGSFFLYSKLTVDKSRWQQGNVFSCSVMHEALHNHYTQKSLSLSPGK
heavy 2: EVQLVESGGGLVKPGGSLRLSCAASGFSFSNSAMSWVRQAPGKGLEWVSTISSGDSYTYYADSVKGRFTISRDNAKNSLYLQMNSLRAEDTAVYYCARQGYGNALDYWGQGTLVTVSSASTKGPSVFPLAPSSKSTSGGTAALGCLVKDYFPEPVTVSWNSGALTSGVHTFPAVLQSSGLYSLSSVVTVPSSSLGTQTYICNVNHKPSNTKVDKKVEPKSCDKTHTAPAPAPAPAPAPAPAPQVQLVESGGGVVQPGRSLRLSCAASGFTFSTYAMNWVRQAPGKGLEWVARIRSKYNNYATYYADSVKDRFTISRDDSKNTLYLQMNSLRAEDTAVYYCARHGNFGNSYVSWFAYWGQGTLVTVSSGGGGSGGGGSGGGGSQTVVTQEPSLTVSPGGTVTLTCRSSTGAVTTSNYANWVQQKPGQAPRGLIGGTNKRAPGVPARFSGSLLGGKAALTLSGVQPEDEAEYYCALWYSNLWVFGGGTKVEIKGGGGSDKTHTCPPCPAPPVAGPSVFLFPPKPKDTLMISRTPEVTCVVVDVSHEAPEVQFNWYVDGVEVHNAKTKPREEQFNSTFRVVSVLTVVHQDWLNGKEYKCKVSNKGLPAPIEKTISKTKGQPREPQVCTLPPSRDELTKNQVSLSCAVKGFYPSDIAVEWESNGQPENNYKTTPPVLDSDGSFFLVSKLTVDKSRWQQGNVFSCSVMHEALHNHYTQKSLSLSPGK
notes: CS4 with the first heavy/light chain variable regions replaced by 1E9.2; order of chains: first light, second light, second heavy, first heavy
For B1, the binding result is recorded as “binds”.
